From IntAct's records for PubMed 21890701

B1: Flagellar motor switch protein FliG (Escherichia coli (strain K12)), P0ABZ1 (parent)
chain: MSNLTGTDKSVILLMTIGEDRAAEVFKHLSQREVQTLSAAMANVTQISNKQLTDVLAEFEQEAEQFAALNINANDYLRSVLVKALGEERAASLLEDILETRDTASGIETLNFMEPQSAADLIRDEHPQIIATILVHLKRAQAADILALFDERLRHDVMLRIATFGGVQPAALAELTEVLNGLLDGQNLKRSKMGGVRTAAEIINLMKTQQEEAVITAVREFDGELAQKIIDEMFLFENLVDVDDRSIQRLLQEVDSESLLIALKGAEQPLREKFLRNMSQRAADILRDDLANRGPVRLSQVENEQKAILLIVRRLAETGEMVIGSGEDTYV
partner: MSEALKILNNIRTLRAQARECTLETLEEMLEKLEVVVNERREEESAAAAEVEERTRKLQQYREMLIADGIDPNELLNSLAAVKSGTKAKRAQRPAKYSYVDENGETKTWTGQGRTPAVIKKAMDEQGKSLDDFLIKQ
B2: Flagellar motor switch protein FliG (Escherichia coli (strain K12)), P0ABZ1 (parent)
chain: B1 chain
partner: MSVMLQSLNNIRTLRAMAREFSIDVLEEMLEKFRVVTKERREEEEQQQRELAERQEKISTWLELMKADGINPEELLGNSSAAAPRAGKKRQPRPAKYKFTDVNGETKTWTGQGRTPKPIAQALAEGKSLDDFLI
B3: DNA-binding protein H-NS (Escherichia coli (strain K12)), P0ACF8 (parent)
chain: B1 partner
partner: B1 chain

Variants of: B1
Conditions: with hns_ecoli hns, P0ACF8

| effect of a mutation on the interaction | Variant |
| --- | --- |
| decreasing interaction strength | MSNLTGTDKSVILLMTIGEDRAAEVFKHLSQREVQTLSAAMANVTQISNKQLTDVLAEFEQEAEQFAALNINANDYLRSVLVKALGEERAASLLEDILETRDTASGIETLNFMEPQSAADLIRDWHPQIIATILVHLKRAQAADILALFDERLRHDVMLRIATFGGVQPAALAELTEVLNGLLDGQNLKRSKMGGVRTAAEIINLMKTQQEEAVITAVREFDGELAQKIIDEMFLFENLVDVDDRSIQRLLQEVDSESLLIALKGAEQPLREKFLRNMSQRAADILRDDLANRGPVRLSQVENEQKAILLIVRRLAETGEMVIGSGEDTYV [E125W] |
| disrupting interaction strength | MSNLTGTDKSVILLMTIGEDRAAEVFKHLSQREVQTLSAAMANVTQISNKQLTDVLAEFEQEAEQFAALNINANDYLRSVLVKALGEERAASLLEDILETRDTASGIETLNFMEPQSAADLIRDEHPQIIATILVHLKRAQAADILALFDERLRHDVMLWIATFGGVQPAALAELTEVLNGLLDGQNLKRSKMGGVRTAAEIINLMKTQQEEAVITAVREFDGELAQKIIDEMFLFENLVDVDDRSIQRLLQEVDSESLLIALKGAEQPLREKFLRNMSQRAADILRDDLANRGPVRLSQVENEQKAILLIVRRLAETGEMVIGSGEDTYV [R160W] |
| decreasing interaction strength | MSNLTGTDKSVILLMTIGEDRAAEVFKHLSQREVQTLSAAMANVTQISNKQLTDVLAEFEQEAEQFAALNINANDYLRSVLVKALGEERAASLLEDILETRDTASGIETLNFMEPQSAADLIRDEHPWIIATILVHLKRAQAADILALFDERLRHDVMLRIATFGGVQPAALAELTEVLNGLLDGQNLKRSKMGGVRTAAEIINLMKTQQEEAVITAVREFDGELAQKIIDEMFLFENLVDVDDRSIQRLLQEVDSESLLIALKGAEQPLREKFLRNMSQRAADILRDDLANRGPVRLSQVENEQKAILLIVRRLAETGEMVIGSGEDTYV [Q128W] |
| disrupting interaction strength | MSNLTGTDKSVILLMTIGEDRAAEVFKHLSQREVQTLSAAMANVTQISNKQLTDVLAEFEQEAEQFAALNINANDYLRSVLVKALGEERAASLLEDILETRDTASGIETLNFMEPQSAADLIRDEWPQIIATILVHLKRAQAADILALFDERLRHDVMLRIATFGGVQPAALAELTEVLNGLLDGQNLKRSKMGGVRTAAEIINLMKTQQEEAVITAVREFDGELAQKIIDEMFLFENLVDVDDRSIQRLLQEVDSESLLIALKGAEQPLREKFLRNMSQRAADILRDDLANRGPVRLSQVENEQKAILLIVRRLAETGEMVIGSGEDTYV [H126W] |

Variants of: B2
Conditions: with stpa_ecoli stpA

| effect of a mutation on the interaction | Variant |
| --- | --- |
| disrupting interaction strength | MSNLTGTDKSVILLMTIGEDRAAEVFKHLSQREVQTLSAAMANVTQISNKQLTDVLAEFEQEAEQFAALNINANDYLRSVLVKALGEERAASLLEDILETRDTASGIETLNFMEPQSAADLIRDEHPQIIATILVHLKRAQAADILALFDERLRHDVMLWIATFGGVQPAALAELTEVLNGLLDGQNLKRSKMGGVRTAAEIINLMKTQQEEAVITAVREFDGELAQKIIDEMFLFENLVDVDDRSIQRLLQEVDSESLLIALKGAEQPLREKFLRNMSQRAADILRDDLANRGPVRLSQVENEQKAILLIVRRLAETGEMVIGSGEDTYV [R160W] |
| disrupting interaction strength | MSNLTGTDKSVILLMTIGEDRAAEVFKHLSQREVQTLSAAMANVTQISNKQLTDVLAEFEQEAEQFAALNINANDYLRSVLVKALGEERAASLLEDILETRDTASGIETLNFMEPQSAADLIRDEWPQIIATILVHLKRAQAADILALFDERLRHDVMLRIATFGGVQPAALAELTEVLNGLLDGQNLKRSKMGGVRTAAEIINLMKTQQEEAVITAVREFDGELAQKIIDEMFLFENLVDVDDRSIQRLLQEVDSESLLIALKGAEQPLREKFLRNMSQRAADILRDDLANRGPVRLSQVENEQKAILLIVRRLAETGEMVIGSGEDTYV [H126W] |
| disrupting interaction strength | MSNLTGTDKSVILLMTIGEDRAAEVFKHLSQREVQTLSAAMANVTQISNKQLTDVLAEFEQEAEQFAALNINANDYLRSVLVKALGEERAASLLEDILETRDTASGIETLNFMEPQSAADLIRDWHPQIIATILVHLKRAQAADILALFDERLRHDVMLRIATFGGVQPAALAELTEVLNGLLDGQNLKRSKMGGVRTAAEIINLMKTQQEEAVITAVREFDGELAQKIIDEMFLFENLVDVDDRSIQRLLQEVDSESLLIALKGAEQPLREKFLRNMSQRAADILRDDLANRGPVRLSQVENEQKAILLIVRRLAETGEMVIGSGEDTYV [E125W] |

Variants of: B3
Conditions: with flig_ecoli fliG, P0ABZ1

| effect of a mutation on the interaction | Variant |
| --- | --- |
| decreasing interaction | MSEALKILNNIRTLRAQARECTLETLEEMLEKLEVVVNERREEESAAAAEVEERTRKLQQYREMLIADGIDPNELLNSLAAVKSGTKAKRAQRPAKYSYVDENGETKTWTGDGRTPAVIKKAMDEQGKSLDDFLIKQ [Q112D] |
| decreasing interaction strength | MSEALKILNNIRTLRAQARECTLETLEEMLEKLEVVVNERREEESAAAAEVEERTRKLQQYREMLIADGIDPNELLNSLAAVKSGTKAKRAQRPAKYSYVDENGETKTWTGQGWTPAVIKKAMDEQGKSLDDFLIKQ [R114W] |
| decreasing interaction strength | MSEALKILNNIRTLRAQARECTLETLEEMLEKLEVVVNERREEESAAAAEVEERTRKLQQYREMLIADGIDPNELLNSLAAVKSGTKAKRAQRPAKYSYVDENGETKTWTGQDRTPAVIKKAMDEQGKSLDDFLIKQ [G113D] |
